Reference: paper PMC5753033
Changes are numbered by the printed parent chain. Numbers in names are those of the source.

Assays:
[1] = target: T1, Mouse profilin 2a, Q9JJV2; test: sedimentation equilibrium analytical ultracentrifugation; details: chain shown with the change
T1 chain: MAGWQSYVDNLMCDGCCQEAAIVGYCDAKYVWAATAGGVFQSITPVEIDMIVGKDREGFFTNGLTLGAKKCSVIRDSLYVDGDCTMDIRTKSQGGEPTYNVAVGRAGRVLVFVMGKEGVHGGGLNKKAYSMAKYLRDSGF

Human profilin 1, P07737 = test: as above; details: chain shown with the change; modeled as a 1:1 interaction
[2] = two-site, independent binding model with one site fixed to the measured non-specific affinity

B1: WAVE1 (P): human WAVE1 [277–488], wild-type proline-rich domain, Q92558 P279G; P280S; P281G; P282S; P348G; P349S; P350G; P351S; P354G; P355S; P356G; P357S; … (protein)
chain: MPLVKRNIDPRHLCHTALPRGIKNELECVTNISLANIIRQLSSLSKYAEDIFGELFNEAHSFSFRVNSLQERVDRLSVSVTQLDPKEEELSLQDITMRKAFRSSTIQDQQLFDRKTLPIPLQETYDVCEQPPPLNILTPYRDDGKEGLKFYTNPSYFFDLWKEKMLQDTEDKRKEKRKQKQKNLDRPHEPEKVPRAPHDRRREWQKLAQGPELAEDDANLLHKHIEVANGPASHFETRPQTYVDHMDGSYSLSALPFSQMSELLTRAEERVLVRPHEPGSGSPMHGAGDAKPIPTCISSATGLIENRPQSPATGRTPVFVSPTPPPPPPPLPSALSTSSLRASMTSTGSGSVPGSGSPPATALQAPAVGSGSAPLQIAPGVLHPAGSGIAGSLVQPSPPVARAAPVCETVPVHPLPQGEVQGLPPGSGSPPLGSGGIRPSSPVTVTALAHPPSGLHPTPSTAPGPHVPLMPPSPPSQVIPASEPKRHPSTLPVISDARSVLLEAIRKGIQLRKVEEQREQEAKHERIENDVATILSRRIAVEYSDSEDDSEFDEVDWLE
Question: B1 was tested. Which Kd ([1]; WAVE1 (PRD [B]) 15.5 µM, Pfn2 91.2, 44.8 and 21.7 µM, 7 K, 10 K, 14 K rpm, 2:1 binding model, Kd1 fit, Kd2 = 138 µM fixed) did it give?
Answer: The Kd was 2.07 µM.

B2: WAVE1 (P): human WAVE1 [277–488], wild-type proline-rich domain, Q92558 P279G; P280S; P281G; P282S; P325G; P326S; P327G; P328S; P348G; P349S; P350G; P351S; … (protein)
chain: B1 chain with P325G, P326S, P327G, P328S, G386P, S387P, G388P, G391P, S392P
Question: How did the Kd [1, 2] turn out when B2 was run?
Answer: Its Kd is 182 µM.

B3: WAVE1 (P): human WAVE1 [277–488], wild-type proline-rich domain, Q92558 P279G; P280S; P281G; P282S; P325G; P326S; P327G; P328S; P348G; P349S; P350G; P351S; … (protein)
chain: B1 chain with P325G, P326S, P327G, P328S
Question: With B3 as the binder, how does the Kd (Human profilin 1, P07737) read?
Answer: Its Kd is 813 µM.

Question: And the Kd ([1]; modeled as a 1:1 interaction)?
Answer: The Kd was 138 µM.

B4: WAVE1 (P): human WAVE1 [277–488], wild-type proline-rich domain, Q92558 P279G; P280S; P281G; P282S; P325G; P326S; P327G; P328S; P348G; P349S; P350G; P351S; … (protein)
chain: B1 chain with P325G, P326S, P327G, P328S, G369P, S370P, G371P, S372P
Question: How did the Kd [1, 2] turn out when B4 was run?
Answer: Its Kd is 145 µM.

B5: WAVE1 (P): human WAVE1 [277–488], wild-type proline-rich domain, Q92558 P325G; P326S; P327G; P328S; P348G; P349S; P350G; P351S; P354G; P355S; P356G; P357S; … (protein)
chain: B1 chain with G279P, S280P, G281P, S282P, P325G, P326S, P327G, P328S
Question: With B5 as the binder, how does the Kd [1, 2] read?
Answer: Its Kd is 51 µM.

B6: WAVE1 (P): human WAVE1 [277–488], wild-type proline-rich domain, Q92558 P279G; P280S; P281G; P282S; P325G; P326S; P327G; P328S; P369G; P370S; P371G; P372S; … (protein)
chain: MPLVKRNIDPRHLCHTALPRGIKNELECVTNISLANIIRQLSSLSKYAEDIFGELFNEAHSFSFRVNSLQERVDRLSVSVTQLDPKEEELSLQDITMRKAFRSSTIQDQQLFDRKTLPIPLQETYDVCEQPPPLNILTPYRDDGKEGLKFYTNPSYFFDLWKEKMLQDTEDKRKEKRKQKQKNLDRPHEPEKVPRAPHDRRREWQKLAQGPELAEDDANLLHKHIEVANGPASHFETRPQTYVDHMDGSYSLSALPFSQMSELLTRAEERVLVRPHEPGSGSPMHGAGDAKPIPTCISSATGLIENRPQSPATGRTPVFVSPTPGSGSPPLPSALSTSSLRASMTSTPPPPVPPPPPPPATALQAPAVGSGSAPLQIAPGVLHPAGSGIAGSLVQPSPPVARAAPVCETVPVHPLPQGEVQGLPPGSGSPPLGSGGIRPSSPVTVTALAHPPSGLHPTPSTAPGPHVPLMPPSPPSQVIPASEPKRHPSTLPVISDARSVLLEAIRKGIQLRKVEEQREQEAKHERIENDVATILSRRIAVEYSDSEDDSEFDEVDWLE
Question: How did the Kd [1, 2] turn out when B6 was run?
Answer: The Kd was 12 µM.
